These are literature values, as cited in paper PMC5371862.

Usually Ki stands for a dissociation constant, usually derived from enzyme kinetics or from competition with a known ligand. Usually Kd stands for the free concentration of one partner at which half of the binding sites on the other are occupied at equilibrium, for simple one-to-one binding.

The target in data set [1] is muscarinic acetylcholine receptor M4 (Homo sapiens) (UniProt P08173).
The target in data set [2] is muscarinic acetylcholine receptor M1 (Homo sapiens) (UniProt P11229).
The next data set concerns the target P-type calcium channel (UniProt O00555).
Data set [3] addresses edema factor (Bacillus anthracis) (UniProt P40136).
For data set [4], the target named is lethal factor (Bacillus anthracis) (UniProt P15917).
Sequence of lethal factor (Bacillus anthracis) (P15917 34-809): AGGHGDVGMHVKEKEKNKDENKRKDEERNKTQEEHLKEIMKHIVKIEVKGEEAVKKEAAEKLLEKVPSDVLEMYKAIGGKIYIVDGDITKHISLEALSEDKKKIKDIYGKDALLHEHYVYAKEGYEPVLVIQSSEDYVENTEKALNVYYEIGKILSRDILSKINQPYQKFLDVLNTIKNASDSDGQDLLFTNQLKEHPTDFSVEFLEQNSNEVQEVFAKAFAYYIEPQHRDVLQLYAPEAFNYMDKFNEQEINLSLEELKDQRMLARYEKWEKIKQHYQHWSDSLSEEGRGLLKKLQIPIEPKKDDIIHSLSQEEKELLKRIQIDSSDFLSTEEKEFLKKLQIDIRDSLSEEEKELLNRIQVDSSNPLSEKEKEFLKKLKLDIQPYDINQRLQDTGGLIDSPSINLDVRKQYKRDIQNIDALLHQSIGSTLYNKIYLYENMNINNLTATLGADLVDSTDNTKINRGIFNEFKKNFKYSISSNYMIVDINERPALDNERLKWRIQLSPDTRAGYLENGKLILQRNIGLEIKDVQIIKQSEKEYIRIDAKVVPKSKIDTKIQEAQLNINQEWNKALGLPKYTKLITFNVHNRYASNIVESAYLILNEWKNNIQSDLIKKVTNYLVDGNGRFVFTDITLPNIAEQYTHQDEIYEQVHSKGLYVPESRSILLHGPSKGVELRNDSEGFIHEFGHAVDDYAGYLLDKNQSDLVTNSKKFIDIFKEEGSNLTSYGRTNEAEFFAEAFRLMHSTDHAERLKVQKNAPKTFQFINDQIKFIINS

Sequence of protective antigen PA63 oligomer PA63 (P13423 197-764): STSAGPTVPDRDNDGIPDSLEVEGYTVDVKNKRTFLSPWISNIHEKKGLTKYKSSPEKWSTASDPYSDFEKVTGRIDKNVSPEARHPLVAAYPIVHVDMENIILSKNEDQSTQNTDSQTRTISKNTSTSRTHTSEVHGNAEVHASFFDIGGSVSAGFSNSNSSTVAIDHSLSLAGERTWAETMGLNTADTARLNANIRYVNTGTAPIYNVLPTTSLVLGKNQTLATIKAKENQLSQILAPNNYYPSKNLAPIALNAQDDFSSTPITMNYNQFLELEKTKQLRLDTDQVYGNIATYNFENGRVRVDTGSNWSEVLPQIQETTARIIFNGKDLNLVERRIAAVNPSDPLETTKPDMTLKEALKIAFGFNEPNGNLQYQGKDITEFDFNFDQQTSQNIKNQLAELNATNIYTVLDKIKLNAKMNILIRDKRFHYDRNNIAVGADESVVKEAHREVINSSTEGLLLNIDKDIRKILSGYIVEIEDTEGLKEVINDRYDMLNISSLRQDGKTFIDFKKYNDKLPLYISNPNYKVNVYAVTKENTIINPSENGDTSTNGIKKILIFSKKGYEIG
Sequence of muscarinic acetylcholine receptor M1 (Homo sapiens) (P11229 whole entry): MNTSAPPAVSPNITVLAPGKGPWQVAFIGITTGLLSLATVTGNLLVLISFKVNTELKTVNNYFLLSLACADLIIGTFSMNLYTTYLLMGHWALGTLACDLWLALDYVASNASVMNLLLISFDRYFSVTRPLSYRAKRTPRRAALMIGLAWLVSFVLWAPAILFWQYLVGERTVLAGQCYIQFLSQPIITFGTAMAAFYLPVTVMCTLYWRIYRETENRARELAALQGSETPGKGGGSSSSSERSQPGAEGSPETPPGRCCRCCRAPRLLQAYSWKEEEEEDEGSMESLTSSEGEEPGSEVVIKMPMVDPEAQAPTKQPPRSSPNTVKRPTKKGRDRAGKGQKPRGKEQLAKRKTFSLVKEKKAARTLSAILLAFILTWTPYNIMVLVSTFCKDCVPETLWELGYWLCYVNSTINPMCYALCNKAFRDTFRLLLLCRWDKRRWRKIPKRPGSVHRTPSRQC
Sequence of P-type calcium channel (O00555 whole entry): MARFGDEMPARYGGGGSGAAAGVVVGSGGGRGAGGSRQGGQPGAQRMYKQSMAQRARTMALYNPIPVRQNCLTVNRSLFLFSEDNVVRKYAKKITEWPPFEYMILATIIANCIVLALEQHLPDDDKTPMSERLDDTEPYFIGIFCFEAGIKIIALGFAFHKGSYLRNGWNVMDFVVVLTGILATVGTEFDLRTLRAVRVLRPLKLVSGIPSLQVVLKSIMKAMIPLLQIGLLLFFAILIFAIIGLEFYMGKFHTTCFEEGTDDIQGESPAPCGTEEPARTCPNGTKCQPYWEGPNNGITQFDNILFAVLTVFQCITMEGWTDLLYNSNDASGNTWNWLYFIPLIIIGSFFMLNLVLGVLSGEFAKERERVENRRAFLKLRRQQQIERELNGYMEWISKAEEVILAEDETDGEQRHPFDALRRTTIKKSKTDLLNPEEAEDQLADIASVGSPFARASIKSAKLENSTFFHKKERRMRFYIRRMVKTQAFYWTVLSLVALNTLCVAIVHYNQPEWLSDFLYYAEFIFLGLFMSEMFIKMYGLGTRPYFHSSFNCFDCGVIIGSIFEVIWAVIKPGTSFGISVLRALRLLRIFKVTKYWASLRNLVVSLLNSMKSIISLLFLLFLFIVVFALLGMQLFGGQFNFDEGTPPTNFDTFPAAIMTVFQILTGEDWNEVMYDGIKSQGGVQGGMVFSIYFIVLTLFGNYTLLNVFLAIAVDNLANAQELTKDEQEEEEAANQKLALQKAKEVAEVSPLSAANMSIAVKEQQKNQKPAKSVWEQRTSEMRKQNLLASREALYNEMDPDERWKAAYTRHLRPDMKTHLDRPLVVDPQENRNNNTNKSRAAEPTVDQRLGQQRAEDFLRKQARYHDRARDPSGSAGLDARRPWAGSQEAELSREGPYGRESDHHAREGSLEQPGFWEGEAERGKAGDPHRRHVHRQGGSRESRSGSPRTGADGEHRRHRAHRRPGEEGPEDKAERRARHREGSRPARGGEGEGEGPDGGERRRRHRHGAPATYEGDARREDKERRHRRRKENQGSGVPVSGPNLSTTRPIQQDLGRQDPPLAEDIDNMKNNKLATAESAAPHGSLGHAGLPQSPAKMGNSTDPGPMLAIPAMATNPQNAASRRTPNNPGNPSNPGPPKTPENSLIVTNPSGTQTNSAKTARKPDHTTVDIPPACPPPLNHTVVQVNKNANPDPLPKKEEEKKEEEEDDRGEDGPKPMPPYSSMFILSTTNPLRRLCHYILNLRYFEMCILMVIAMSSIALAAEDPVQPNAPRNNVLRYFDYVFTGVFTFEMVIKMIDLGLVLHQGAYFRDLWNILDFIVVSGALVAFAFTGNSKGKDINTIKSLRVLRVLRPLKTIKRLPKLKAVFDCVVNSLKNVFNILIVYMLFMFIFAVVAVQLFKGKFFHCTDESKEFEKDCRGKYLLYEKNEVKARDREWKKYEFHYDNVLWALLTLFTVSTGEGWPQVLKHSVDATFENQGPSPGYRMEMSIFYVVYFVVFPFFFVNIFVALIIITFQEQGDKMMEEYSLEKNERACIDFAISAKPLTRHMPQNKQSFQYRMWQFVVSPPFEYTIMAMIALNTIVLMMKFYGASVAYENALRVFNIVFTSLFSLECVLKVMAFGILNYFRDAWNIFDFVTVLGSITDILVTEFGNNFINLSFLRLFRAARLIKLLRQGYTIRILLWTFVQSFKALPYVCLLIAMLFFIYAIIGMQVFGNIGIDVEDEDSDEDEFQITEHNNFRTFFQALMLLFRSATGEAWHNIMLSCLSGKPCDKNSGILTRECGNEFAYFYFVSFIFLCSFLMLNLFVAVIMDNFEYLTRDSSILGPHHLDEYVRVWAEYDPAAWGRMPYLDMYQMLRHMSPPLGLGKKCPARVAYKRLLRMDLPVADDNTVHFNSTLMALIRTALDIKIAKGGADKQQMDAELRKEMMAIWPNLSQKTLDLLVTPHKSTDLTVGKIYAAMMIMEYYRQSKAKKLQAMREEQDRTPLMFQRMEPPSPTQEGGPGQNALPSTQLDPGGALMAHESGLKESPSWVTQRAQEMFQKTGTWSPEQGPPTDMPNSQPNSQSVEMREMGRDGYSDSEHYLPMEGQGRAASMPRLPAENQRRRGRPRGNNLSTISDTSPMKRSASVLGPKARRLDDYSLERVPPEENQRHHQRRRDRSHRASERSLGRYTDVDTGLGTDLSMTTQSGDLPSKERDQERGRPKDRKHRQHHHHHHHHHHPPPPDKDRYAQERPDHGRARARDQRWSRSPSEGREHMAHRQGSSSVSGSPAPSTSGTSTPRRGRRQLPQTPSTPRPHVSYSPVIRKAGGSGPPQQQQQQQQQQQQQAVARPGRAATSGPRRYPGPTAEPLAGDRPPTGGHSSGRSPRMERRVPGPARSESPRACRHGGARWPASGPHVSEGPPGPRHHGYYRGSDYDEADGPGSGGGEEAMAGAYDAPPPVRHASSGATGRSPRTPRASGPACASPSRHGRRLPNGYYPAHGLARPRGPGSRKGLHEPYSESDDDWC
Sequence of edema factor (Bacillus anthracis) (P40136 34-800): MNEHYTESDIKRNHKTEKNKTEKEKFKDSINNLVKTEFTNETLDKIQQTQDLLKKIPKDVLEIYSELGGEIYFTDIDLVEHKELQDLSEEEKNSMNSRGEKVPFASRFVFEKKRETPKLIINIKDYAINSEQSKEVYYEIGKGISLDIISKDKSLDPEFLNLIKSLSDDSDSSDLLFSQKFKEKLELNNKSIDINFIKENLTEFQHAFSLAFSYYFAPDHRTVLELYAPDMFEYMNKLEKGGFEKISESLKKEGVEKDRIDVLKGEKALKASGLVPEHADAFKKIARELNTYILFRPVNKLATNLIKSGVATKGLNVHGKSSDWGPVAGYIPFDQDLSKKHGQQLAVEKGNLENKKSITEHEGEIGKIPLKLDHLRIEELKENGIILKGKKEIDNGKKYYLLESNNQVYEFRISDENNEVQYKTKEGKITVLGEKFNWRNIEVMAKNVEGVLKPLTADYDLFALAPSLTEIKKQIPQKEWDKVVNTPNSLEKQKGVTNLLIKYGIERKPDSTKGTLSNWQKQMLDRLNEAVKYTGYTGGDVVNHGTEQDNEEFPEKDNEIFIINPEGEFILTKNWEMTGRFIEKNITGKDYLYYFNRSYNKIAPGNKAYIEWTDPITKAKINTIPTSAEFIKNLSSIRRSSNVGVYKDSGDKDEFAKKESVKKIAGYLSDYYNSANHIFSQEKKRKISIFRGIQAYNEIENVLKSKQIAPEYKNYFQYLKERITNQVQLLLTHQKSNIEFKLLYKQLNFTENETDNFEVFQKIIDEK

As to “muscarinic toxin MT3 (from UniProt P81031)”, in data set [1], the Ki was 2 nM. For “muscarinic toxin MT7 (from UniProt Q8QGR0)”, the Ki in data set [2] is 0.014 nM. Consider “omega-agatoxin Aga-IVA (from UniProt P30288)”, for which the dissociation constant (Kd) in the data set with P-type calcium channel is 3 nM. As for “protective antigen PA63 oligomer PA63 (from UniProt P13423)”, the Kd in data set [3] and in data set [4] was 1 nM each time.
